From patent publication US20220177560A1 (Janssen / Centocor, published 2022) come the findings set out here.

The target of test [1] is T1, human Aβ 3pE-28 peptide (human, pyroglutamate (pE) at the N-terminus, residue 3 of Aβ). In words: SPR; same value as in Table 5. For orientation: In SPR one partner is held on a chip, and binding of the other changes the refractive index at the surface.
A further test concerns the target T2, HU-3pE-beta-Amyloid (human).
T2 construct: also called the peptide
In words: SPR; HU-3pE-beta-Amyloid 0.6 to 4.5 nM.

Test [2] concerns the target T3, human FcRn (human, UniProt P55899 24-297; P61769 21-119).
T3 construct: the construct is not described; also called FcRn (human)
Kind of test: FcRn binding affinity; method not described.

Test [3] concerns the target T4, cynomolgus FcRn (cynomolgus, UniProt Q8SPV9 24-297; Q8SPW0 21-119).
T4 construct: the construct is not described; also called FcRn (cyno)
In words: FcRn binding affinity; method not described.

Test [4] deals with human Aβ 1-28 peptide (human). Kind of test: SPR; no binding up to the maximum 1.2 µM tested.
Chain of human Aβ 1-28 peptide (human) (peptide, as listed by the source): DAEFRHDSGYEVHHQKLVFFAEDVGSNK
Test [5] has as its target T5, Scrambled 3pE-28 (human).
T5 construct: also called scrambled Aβ 3pE-28; Aβ 3pE-28 peptide with amino acids 3-9 scrambled
T5 peptide: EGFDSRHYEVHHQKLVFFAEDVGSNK
Kind of test: SPR; no binding up to the maximum 1.2 µM tested.

In test [6] the target is human Aβ 1-28 peptide (human). In words: SPR; KD limit divided by the KD for human 3pE Aβ.
Test [7] addresses T5, Scrambled 3pE-28. Kind of test: SPR; KD limit divided by the KD for human 3pE Aβ.
The target of test [8] is T6, mouse Aβ 3pE-28 peptide (mouse, pyroglutamate (pE) at the N-terminus, residue 3 of Aβ).
T6 construct: also called rodent Aβ3pE-28
T6 peptide: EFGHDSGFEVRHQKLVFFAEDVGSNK
Kind of test: SPR, antibody captured, peptide injected, 1:1 fit.

Test [9] addresses T6, mouse Aβ 3pE-28 peptide. In words: SPR; KD for this peptide divided by the KD for human 3pE Aβ.
The target in test [10] is T3, human FcRn. Kind of test: FcRn binding affinity; method not described; average of 5-6 replicates.
Test [11] addresses T4, cynomolgus FcRn. Described as above.
For test [12], the target named is T1, human Aβ 3pE-28 peptide. In words: SPR, antibody captured on anti-human or anti-mouse Ig chip, peptide injected, 1:1 fit; N=9.
The target in test [13] is human Aβ1-40 peptide (human). Kind of test: SPR (Biacore T200), antibody captured, peptide injected.
Target sequence in this assay (peptide, as listed by the source): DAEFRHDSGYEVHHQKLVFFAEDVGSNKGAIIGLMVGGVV
In test [14] the target is T1, human Aβ 3pE-28 peptide. In words: SPR, antibody captured on anti-human or anti-mouse Ig chip, peptide injected, 1:1 fit; N=1.
The next test addresses human Aβ 3pE-40 peptide (human, pyroglutamate (pE) at the N-terminus, residue 3 of Aβ). Kind of test: SPR (Biacore T200), antibody captured by anti-mouse antibody on CM5, peptide injected, 1:1 fit; mean.
The target in test [15] is human Aβ1-40 peptide (human). Kind of test: sandwich ELISA, BAMB31_1 coated, JRF/cAβ40/28-HRPO detection. Background: ELISA stands for enzyme-linked immunosorbent assay.
A further test concerns the target T7, rodent Aβ3pE-40 (rodent, pyroglutamate (pE) at the N-terminus, residue 3 of Aβ).
T7 peptide: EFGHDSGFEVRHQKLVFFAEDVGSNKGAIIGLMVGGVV
The test is described as above.

A further test addresses T8, human AβpE11-40 (human, pyroglutamate (pE) at the N-terminus, residue 11 of Aβ).
T8 construct: also called Aβ11pE-40
T8 peptide: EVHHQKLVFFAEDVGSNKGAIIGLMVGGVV
The test is described as above.

The target in a further test is human Aβ1-42 (human). Kind of test: sandwich ELISA, BAMB31_1 coated, JRF/cAβ42/26-HRPO detection.
A further test has as its target T9, AβpE11-42 (human, pyroglutamate (pE) at the N-terminus, residue 11 of Aβ).
T9 construct: also called Aβ11pE-42
T9 peptide: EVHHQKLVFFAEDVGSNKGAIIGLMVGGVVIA
The description is as above.

In a further test the target is Aβ3pE-42 (pyroglutamate (pE) at the N-terminus, residue 3 of Aβ). Kind of test: sandwich ELISA, BAMB31_1 coated, HRPO-labeled C-terminal antibody for detection.

T1 sequence (peptide, as listed by the source): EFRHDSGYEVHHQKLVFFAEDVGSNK
Chain of human Aβ 3pE-40 peptide (human, pyroglutamate (pE) at the N-terminus, residue 3 of Aβ) (peptide, as listed by the source): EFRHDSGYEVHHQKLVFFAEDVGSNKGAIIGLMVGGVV
T4 sequence (Q8SPV9 24-297 limits assumed, chain 1 of 2): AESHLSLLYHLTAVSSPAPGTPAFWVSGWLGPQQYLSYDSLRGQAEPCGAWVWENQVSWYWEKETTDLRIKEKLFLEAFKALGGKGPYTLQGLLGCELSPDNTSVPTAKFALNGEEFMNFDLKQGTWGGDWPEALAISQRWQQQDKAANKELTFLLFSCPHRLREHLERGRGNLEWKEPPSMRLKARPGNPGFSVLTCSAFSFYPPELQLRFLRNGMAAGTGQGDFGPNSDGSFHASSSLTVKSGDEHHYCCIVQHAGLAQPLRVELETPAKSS
T4 sequence (Q8SPW0 21-119 limits assumed, chain 2 of 2): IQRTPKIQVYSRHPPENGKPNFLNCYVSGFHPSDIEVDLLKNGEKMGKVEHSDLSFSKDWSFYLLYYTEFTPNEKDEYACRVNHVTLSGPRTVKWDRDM
T3 sequence (P55899 24-297 limits assumed, chain 1 of 2): as the sequence (Q8SPV9 24-297 limits assumed, chain 1 of 2) above, with D39N, Q44E, S99G, G189S, N190S, M217L, T269S counted along it
T3 sequence (P61769 21-119 limits assumed, chain 2 of 2): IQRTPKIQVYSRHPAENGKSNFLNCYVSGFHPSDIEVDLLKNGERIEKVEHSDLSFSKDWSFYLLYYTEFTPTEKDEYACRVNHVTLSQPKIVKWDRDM

B1: BAMB675 (antibody, human IgG1, kappa)
heavy: QVQLVQSGAEVKKPGASVKVSCKASGHVFTSYDMYWVRQAPGQGLEWIGYIDSDSGDTSYNQKFKGRVTLTVDTSTSTVYMELSSLRSEDTAVYYCAYYRYAMDYWGQGTLVTVSSASTKGPSVFPLAPSSKSTSGGTAALGCLVKDYFPEPVTVSWNSGALTSGVHTFPAVLQSSGLYSLSSVVTVPSSSLGTQTYICNVNHKPSNTKVDKKVEPKSCDKTHTCPPCPAPELLGGPSVFLFPPKPKDTLYITREPEVTCVVVDVSHEDPEVKFNWYVDGVEVHNAKTKPREEQYNSTYRVVSVLTVLHQDWLNGKEYKCKVSNKALPAPIEKTISKAKGQPREPQVYTLPPSREEMTKNQVSLTCLVKGFYPSDIAVEWESNGQPENNYKTTPPVLDSDGSFFLYSKLTVDKSRWQQGNVFSCSVMHEALHNHYTQKSLSLSPGK
light: DVVMTQSPLSLPVTLGQPASISCKSSQSLLDSRAKTYLTWLQQRPGQSPRRLIYLVSKLDSGVPDRFSGSGSGTDFTLKISRVEAEDVGVYYCWQGTHFPYTFGGGTKLEIKRTVAAPSVFIFPPSDEQLKSGTASVVCLLNNFYPREAKVQWKVDNALQSGNSQESVTEQDSKDSTYSLSSTLTLSKADYEKHKVYACEVTHQGLSSPVTKSFNRGEC
notes: Same V regions as BAMB674; human IgG1 with M37Y, S39T, T41E (YTE) in the Fc (numbering on the constant region, GenBank AEV43323); also called BAMB31 HFA mAb, +YTE IgG1; +YTE mAb
In the case of B1, the Kd (in general, the equilibrium constant for the complex coming apart) was 0.0257 nM with human Aβ 3pE-28 peptide [1]; 0.0443 nM with HU-3pE-beta-Amyloid; above 1200 nM in the test with human Aβ 1-28 peptide [4]; above 1200 nM with Scrambled 3pE-28 [5]; 77.5 nM in the test with mouse Aβ 3pE-28 peptide [8]; 111 nM with human FcRn [10]. The Kd with cynomolgus FcRn [11] was 86.4 nM; with human Aβ 3pE-28 peptide [12], 0.0257 nM. Further, the results for the koff with HU-3pE-beta-Amyloid, with mouse Aβ 3pE-28 peptide [8] and with human Aβ 3pE-28 peptide [12] were 0.000166 s⁻¹, 0.000333 s⁻¹ and 8.24e-05 s⁻¹, respectively. Also, the kon (in general, a measure of how fast the partners come together) with HU-3pE-beta-Amyloid is 3.74e+06 M⁻¹ s⁻¹; with mouse Aβ 3pE-28 peptide [8], 4680 M⁻¹ s⁻¹; in the test with human Aβ 3pE-28 peptide [12] it was 3.24e+06 M⁻¹ s⁻¹. Besides, the “fold higher affinity compared with wt IgG1 (BAMB674)” value in the test with human FcRn [2] and with cynomolgus FcRn [3] was around 3 fold throughout. Also, the “Fold Selectivity” value with human Aβ 1-28 peptide [6] is above 46000 fold; with Scrambled 3pE-28 [7] it was above 46000 fold; in the test with mouse Aβ 3pE-28 peptide [9], 3010 fold.

B2: BAMB31_2a (mIgG2a) (antibody)
heavy: EIQLQQSGPELVKPGTSVKVSCKASGHVFTSYDMYWVKQSHGKSLEWIGYIDSDNGDTSYNQKFKGKATLTVDKSSSTAYMHLNSLTSEDSAVYYCAYYRYAMDYWGQGTSVTVSSAKTTAPSVYPLAPVCGDTTGSSVTLGCLVKGYFPEPVTLTWNSGSLSSGVHTFPAVLQSDLYTLSSSVTVTSSTWPSQSITCNVAHPASSTKVDKKIEPRGPTIKPCPPCKCPAPNLLGGPSVFIFPPKIKDVLMISLSPIVTCVVVDVSEDDPDVQISWFVNNVEVHTAQTQTHREDYNSTLRVVSALPIQHQDWMSGKEFKCKVNNKDLPAPIERTISKPKGSVRAPQVYVLPPPEEEMTKKQVTLTCMVTDFMPEDIYVEWTNNGKTELNYKNTEPVLDSDGSYFMYSKLRVEKKNWVERNSYSCSVVHEGLHNHHTTKSFSRTPGK
light: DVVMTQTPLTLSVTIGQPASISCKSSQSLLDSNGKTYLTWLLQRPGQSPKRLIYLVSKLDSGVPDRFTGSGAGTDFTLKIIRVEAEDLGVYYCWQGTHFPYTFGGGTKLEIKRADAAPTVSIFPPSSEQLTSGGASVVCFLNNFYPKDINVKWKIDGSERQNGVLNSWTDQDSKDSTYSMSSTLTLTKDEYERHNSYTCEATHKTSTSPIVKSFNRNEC
notes: BAMB31 V regions on murine IgG2a; also called BAMB31 (mIgG2a); mIgG2a parent
As for B2, the binding result in the test with human Aβ1-40 peptide [13] is recorded as “no binding (tested: 50 nM)”. Besides, in the test with human Aβ 3pE-28 peptide [14], the Kd was found to be 0.0275 nM, the koff (usually the rate constant with which the complex falls apart) worked out at 7.97e-05 s⁻¹ and the kon was determined as 2.89e+06 M⁻¹ s⁻¹. For the same molecule, in the test with human Aβ 3pE-40 peptide, the Kd was found to be 0.053 nM, the koff was found to be 4.94e-05 s⁻¹ and the kon was 930000 M⁻¹ s⁻¹.

B3: BAMB31_1 (antibody, mouse IgG1, V domains shown)
VH: EIQLQQSGPELVKPGTSVKVSCKASGHVFTSYDMYWVKQSHGKSLEWIGYIDSDNGDTSYNQKFKGKATLTVDKSSSTAYMHLNSLTSEDSAVYYCAYYRYAMDYWGQGTSVTVSS
VL: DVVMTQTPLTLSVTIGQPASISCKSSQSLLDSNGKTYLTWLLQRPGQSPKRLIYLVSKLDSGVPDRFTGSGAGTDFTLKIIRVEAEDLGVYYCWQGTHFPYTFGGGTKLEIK
notes: Hybridoma antibody
Take B3: the binding result is recorded as “no binding (tested: 10 ng/mL)” with human Aβ1-40 peptide [15]; “no binding (tested: 10 ng/mL)” with rodent Aβ3pE-40; “no binding (tested: 10 ng/mL)” in the test with human AβpE11-40; “no binding (tested: 10 ng/mL)” in the test with human Aβ1-42; “no binding (tested: 10 ng/mL)” with AβpE11-42; “binds” with Aβ3pE-42.
